# B1: scFv 2H1 (scFv)
# scFv: QQVQLVQSGAEVKKPGESLKISCKGSGYSFTSYWIGWVRQMPGKGLEWMGIIYPGDSDTRYSPSFQGQVTISADKSISTAYLQWSSLKASDTAMYYCARLVVRDTEIWGQGTMVTVSSAPQAKSSGSGSESKVDQAVVTQEPSLTVSPGGTVTLTCASSIGAVTSGNYPNWFQQRPGQPPRALIYSTSNKHSWTPARFSGSLLGGKAALTLSGAQPEDEAEYYCLLSYSGARPVFGGGTKLTVLGAAAGSEQKLISEEDLNSHHHHHH
# notes: Made in E. coli from pACR.1-scFv 2H1, purified by IMAC; also called scFv 2H1 fragment; bacterial scFv 2H1
# What was measured:
# [1] = molecular target: T1, Isoform 120 of mouse VEGF-A (R&D) (mouse, UniProt Q00731-3 27-146); assay: ELISA on coated antigen (Table 7)
# T1 construct: also called isoform 120 of murine VEGF
# T1 sequence (looked up): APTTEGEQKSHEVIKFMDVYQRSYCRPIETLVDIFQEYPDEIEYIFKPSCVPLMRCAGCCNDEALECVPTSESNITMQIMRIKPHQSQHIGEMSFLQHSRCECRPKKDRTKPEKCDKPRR
# Procedure: The purified Fab fragment was evaluated for its capacity of recognizing human VEGF using an ELISA assay. […] The purified Fab fragment was diluted and incubated for 1 h at 22° C.
# scFv 2H1 = molecular target: B1; assay: phage ELISA on coated scFv 2H1
# [2] = molecular target: T1, Isoform 120 of mouse VEGF-A (R&D); assay: ELISA on coated antigen (Table 6)
# [3] = molecular target: T1, Isoform 120 of mouse VEGF-A (R&D); assay: phage ELISA; + means OD at least 5 times the negative control
# Procedure: The latter was immobilized in a 96-well Maxisorp (Nunc) immunoplate at a concentration of 1 μg/ml in PBS, during 16 h at 4° C. The plate was blocked at 22° C. with PBS-milk 4% during 1 h.
# After blocking the plates, the phages purified as described above and diluted in PBS-skimmed milk 4% were added and incubated for 1 h at 22° C. After several washes, the bound phages were detected with anti-M13 peroxidase conjugated antibodies. […] As negative control, a sample of the mixture of phages of the unselected library was used, precipitated as described above.
binder,measurement,setting,value
"Fab 2H1-32 (Fab, V domains shown, Made in E. coli, purified by IMAC, purity close to 85%; also called Fab fragment 2H1-32; Fab produced in E. coli) VH: QVQLVQSGAEVKKPGESLKISCKGSGYSFTSYWIGWVRQMPGKGLEWMGIIYPGDSDTRYSPSFQGQVTISADKSISTAYLQWSSLKASDTAMYYCARLVVRDTEIWGQGTMVTVSS VL: QAVVTQEPSLTVSPGGTVTLTCASSIGAVTSGNYPNWFQQRPGQPPRALIYSTSNKHSWTPARFSGSLLGGKAALTLSGAQPEDEAEYYCLLSYSGARPVFGGGTKLTVLG",binding result,[1],no binding (tested: 20 µg/mL)
CCRTLMLLQYHR (Tested as phage; also called peptide phage clones) [peptide CCRTLMLLQYHR displayed in filamentous phage],binding result,scFv 2H1,binds
B1,binding result,[2],no binding (tested: 20 µg/mL)
"phage clone 2H1-F (scFv, Displayed on filamentous phage, fused to a coat protein that the letters do not carry., Tested as phage; also called scFv 2H1-F; original phage scFv (2H1-F); not shown: phage coat protein of the phagemid display format, with any tag or junction residues before it) scFv: QQVQLVQSGAEVKKPGESLKISCKGSGYSFTSYWIGWVRQMPGKGLEWMGIIYPGDSDTRYSPSFQGQVTISADKSISTAYLQWSSLKASDTAMYYCARLVVRDTEIWGQGTMVTVSSAPQAKSSGSGSESKVDQAVVTQEPSLTVSPGGTVTLTCASSIGAVTSGNYPNWFQQRPGQPPRALIYSTSNKHSWTPARFSGSLLGGKAALTLSGAQPEDEAEYYCLLSYSGARPVFGGGTKLTVLG",binding result,[3],no binding

# — patent publication US20100151566A1 (published 2010)
